According to patent publication US20230322952A1 (BIOMUNEX PHARMACEUTICALS, published 2023):

T1: CD19 expressed on the cell surface of tumor cells (UniProt P15391 20-556, limits assumed)
T1 sequence (looked up): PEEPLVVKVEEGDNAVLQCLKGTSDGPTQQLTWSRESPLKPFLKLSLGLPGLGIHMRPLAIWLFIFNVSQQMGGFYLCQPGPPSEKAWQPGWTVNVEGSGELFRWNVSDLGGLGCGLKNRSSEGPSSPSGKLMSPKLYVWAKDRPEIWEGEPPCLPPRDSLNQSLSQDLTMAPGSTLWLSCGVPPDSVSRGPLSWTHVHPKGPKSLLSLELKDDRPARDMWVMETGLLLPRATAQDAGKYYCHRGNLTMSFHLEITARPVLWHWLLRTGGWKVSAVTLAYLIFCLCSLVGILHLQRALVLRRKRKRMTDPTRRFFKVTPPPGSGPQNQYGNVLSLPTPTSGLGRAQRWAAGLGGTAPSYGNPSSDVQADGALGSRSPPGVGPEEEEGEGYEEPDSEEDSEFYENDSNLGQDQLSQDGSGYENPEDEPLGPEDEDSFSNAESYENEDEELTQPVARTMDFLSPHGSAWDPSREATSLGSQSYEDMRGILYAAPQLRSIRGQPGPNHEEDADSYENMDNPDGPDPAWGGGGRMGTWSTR

B1: anti-CD19/anti-Vα7.2 Fab-Fab (bispecific antibody)
heavy: QVQLQQSGAELVRPGSSVKISCKASGYAFSSYWMNWVKQRPGQGLEWIGQIWPGDGDTNYNGKFKGKATLTADESSSTAYMQLSSLASEDSAVYFCARRETTTVGRYYYAMDYWGQGTTVTVSSASTKGPSVFPLAPSSKSTSGGTAALGCLVKDYFPEPVTVSWNSGALTSGVHTFPAVLQSSGLYSLSSVVDVPSSSLGTQTYICNVNHKPSNTKVDKRVEPKSCDKTHTAPPAPAPELLGGPAAPPAPAPAGGEVQLQQSGAELVKPGASVKLSCTASGFNIKDTHMHWVKQRPEQGLEWIGRTDPASGDTKYDPKFQGKATITADTSSNTAYLHLSSLTSEDTAVYYCAHYYRDDVNYAMDYWGQGTTVTVSSASTKGPSVFPQAPSSKSTSGGTAALGCLVKDYFPEPVTVSWNSGALTSGVHTFPAVLQSSGLYSLVSVVTVPSSSLGTQTYICNVNHKPSNTKVDKRVEPKSC
light 1: not shown
light 2: DIVMTQSQKFLSTSVGDRVSVTCKARQNVGSNVAWYQQKPGQSPKSLIYSSSFRYSGVPDRFTGSGSGTDFTLTISNVQSEDLAEYFCQQYNTYPYTFGGGTELEIKRTVAAPSVFIFPPSDEQLKSGTASVTCLLNNFYPREAKVQWKVDNALQSGNSQESVTEQDSKDSTYSLVSTLTLSKADYEKHKVYACEVTHQGLSSPVTKSFNRGEC
B2: anti-Vα7.2/anti-CD19 BiXAb (bispecific antibody, human IgG1, kappa, L234A L235A)
heavy: not shown
light 1: not shown
light 2: B1 light 2
B3: anti-Vα7.2/anti-CD19 Fab-Fab (bispecific antibody)
heavy: EVQLQQSGAELVKPGASVKLSCTASGFNIKDTHMHWVKQRPEQGLEWIGRTDPASGDTKYDPKFQGKATITADTSSNTAYLHLSSLTSEDTAVYYCAHYYRDDVNYAMDYWGQGTTVTVSSASTKGPSVFPQAPSSKSTSGGTAALGCLVKDYFPEPVTVSWNSGALTSGVHTFPAVLQSSGLYSLVSVVTVPSSSLGTQTYICNVNHKPSNTKVDKRVEPKSCDKTHTAPPAPAPELLGGPAAPPAPAPAGGQVQLQQSGAELVRPGSSVKISCKASGYAFSSYWMNWVKQRPGQGLEWIGQIWPGDGDTNYNGKFKGKATLTADESSSTAYMQLSSLASEDSAVYFCARRETTTVGRYYYAMDYWGQGTTVTVSSASTKGPSVFPLAPSSKSTSGGTAALGCLVKDYFPEPVTVSWNSGALTSGVHTFPAVLQSSGLYSLSSVVDVPSSSLGTQTYICNVNHKPSNTKVDKRVEPKSC
light 1: not shown
light 2: B1 light 2
notes: Tandem Fab-Fab without Fc; anti-Vα7.2 Fab (from clone 3C10) at the N-terminus; also called Vα7.2/CD19 Fab-Fab
B4: anti-CD19/anti-Vα7.2 BiXAb (bispecific antibody, human IgG1, kappa, L234A L235A)
heavy: not shown
light 1: not shown
light 2: B1 light 2

Experiments:
[1] = biological target: T1, CD19 expressed on the cell surface of …; test: cell-based or functional assay
[2] = biological target: T2, Vα7.2 TCR chain expressed on Vα7.2+CD8+ MAIT cells (human); test: flow cytometry on Vα7.2+ cells among human CD8+ T cells
T2 construct: whole, on cells; also called TCR Vα7.2 chain; Vα7.2+ cells
Method: The anti-Vα7.2/anti-CD19 Fab-Fab was then tested for binding on Vα7.2+CD8⁺ T cells. The assay was performed by flow cytometry. Human CD8⁺ T cells were isolated from purified peripheral blood mononuclear cells (PBMCs). Briefly, leukapheresis packs coming from healthy donors were centrifuged in ficoll gradients and the PBMCs were collected. CD8⁺ T cells were then isolated with a commercial negative selection kit (Miltenyi Biotec). These cells were then used to determine binding of anti-Vα7.2/anti-CD19 […] on Vα7.2⁺ cells. Cells were washed with PBS and stained with a Fixable Viability Dye (eFluor™ 780, ThermoFisher) and the human Fc Block reagent (BD) (in PBS for 25 min at 4° C.). The cells were then washed with FACS buffer (PBS, 2 mM EDTA, 0.5% BSA) and stained with different concentrations of anti-Vα7.2/anti-CD19 Fab-Fab (Table 3, shown in both nM and μg/ml) for 1 h at 4° C. An irrelevant Fab-Fab was used as a negative control. Following washing (5×), the cells were stained with a secondary goat anti-human antibody conjugated with Phycoerythrin (Jackson Immunoresearch) and an anti-CD8 antibody (Biolegend) for 45 min at 4° C. The cells were then analyzed in the MACSquant flow cytometer.
Depending on the donor, Vα7.2⁺ cells range between 1 to 10% of CD8⁺ T cells.

T2 sequence (A0A0B4J238 19-106): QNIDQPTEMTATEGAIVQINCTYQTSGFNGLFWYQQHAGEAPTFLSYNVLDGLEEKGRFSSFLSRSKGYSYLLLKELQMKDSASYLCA

| Binder | percentage of CD19+ A-549 tumor cells lysis [1] | EC50 [2] |
| --- | --- | --- |
| B1 | ≤ 30% |  |
| B2 | ≤ 30% |  |
| B3 | ≤ 30% | 3.49 nM |
| B4 | ≤ 30% |  |
